The source of these data is patent US20260226161A1 (EXELIXIS, published 2026).

Test [1] has as its target T1, biotinylated human NKG2C/CD94 heterodimer (extracellular domains, Fc fusions) (human, UniProt P26717 94-231; Q13241 32-179, biotinylated).
T1 construct: not shown: N-terminal Fc (hole)
Nature of the test: BLI (Octet), bivalent. The protocol: (§1) A total of 58 binders formatted as IgG antibodies from phage display as described in Example 1 were further tested for binding.
(§2) The antibodies were evaluated for binding to (1) human NKG2A, (2) human NKG2C, and (3) cyno NKG2A. Bivalent interaction of binders to biotinylated human NKG2A (see Example 1), biotinylated human NKG2C/CD94 heterodimer, or biotinylated cyno NKG2A/CD94 heterodimer immobilized on a streptavidin biosensor was monitored using Octet (Pall ForteBio) instrument. For these assays, human NKG2C/CD94 and cyno NKG2A/CD94 were prepared using the procedure as described in Example 1. Similarly, the extracellular domain of human NKG2C was expressed and purified from HEK293 cells as heterodimer with CD94 as Fc fusions. The extracellular domain of NKG2C used for selection campaigns encompassed amino acid sequence Ile94-Leu231 (Accession No. P26717-1; SEQ ID NO: 75). The gene encoding CD94 (Accession No. Q13241-1, SEQ ID NO:76), Lys33-Ile159 was synthesized from IDT and cloned into mammalian expression vector as an N-terminal Fc (hole) fusion. Plasmids encoding NKG2C-Fc fusion and CD94-Fc fusion were co-transfected into HEK293T cells using standard procedures. NKG2C/CD94 heterodimer was purified from cell supernatant using Protein A resins. Similar approach was used to obtain Cynomolgus NKG2A protein. Specifically, extracellular domain of Cynomolgus NKG2A contained amino acid Pro 94-Leu 233. […] Extracellular domain of Cynomolgus CD94 contained amino acid residues Lys 33-Ile 179 (Accession No. Q68VD4-1; SEQ ID NO: 78).
(Biolayer interferometry detects binding as a change in optical thickness at a sensor tip.)

In test [2] the target is T2, biotinylated cyno NKG2A/CD94 heterodimer (extracellular domains) (cynomolgus, UniProt Q9MZJ3 94-233; Q9MZK9 32-179, biotinylated).
T2 construct: also called Cynomolgus NKG2A protein; not shown: fusion partner/tags ('similar approach' to the human proteins); fusion partner ('similar approach')
Nature of the test: BLI (Octet), bivalent. The procedure: as §1, §2

In test [3] the target is T3, NKG2A expressed on KHYG-1 cells (endogenous) (human, UniProt P26715 1-233; Q13241 1-179).
T3 construct: whole, on cells; Surface NKG2A copy number of approximately 10-20K; also called KHYG-1 cells expressing endogenous NKG2A; NKG2A-expressing cells
As to the kind of experiment: flow cytometry on KHYG-1 cells expressing endogenous NKG2A. The protocol:
Antibodies that were selected for binding to NKG2A, for example, such as those described in Examples 1 and 2, were evaluated for binding to cells that express NKG2A.
Cells were harvested at 70-90% confluence on the day of the assay. Cells were collected by centrifugation at 200×g for 5 minutes and media was removed. Cells were resuspended at 2×10⁶ cells per mL in cold PBS. […] 50 μL per well of the antibody dilution was plated in a 96 well V-bottom plate (Costar 3897). 50 μL per well of cell suspension was added. Plates were placed at 4° C. for 45-60 minutes.
A general note: In flow cytometry, cells or beads pass a laser one at a time.

The target in test [4] is T4, PD-L1 expressed on cells (UniProt Q9NZQ7 19-290, limits assumed). As to the kind of experiment: cell-based or functional assay.
Test [5] deals with T4, PD-L1 expressed on cells. Nature of the test: flow cytometry on MC/CAR cells expressing PD-L1. The protocol: (§3) Cells were collected by centrifugation at 400×g for 7 minutes and primary antibody was removed. 50 μL per well of AF488 goat anti human IgG Fab (Jackson Immuno Research 109-547-003) at 1:100 dilution was added. Plates were placed at 4° C. for 30 minutes.
(§4) Cells were collected by centrifugation at 400×g for 7 minutes and secondary antibody was removed. Cells were resuspended in 50 μL per well of PBS and analyzed by flow cytometry. Binding curves were calculated using the mean fluorescence intensity (MFI) of the FITC fluorescence signal on the cells. Bispecific antibody binding was evaluated in KHYG-1 cells expressing endogenous NKG2A and in MC/CAR cells expressing PD-L1. Cells were harvested and assayed for binding as described above.

Test [6] addresses T5, Human NKG2A & CD94 with mouse IgG2a Fc tag (AcroBiosystems) (human, UniProt P26715 94-233; Q13241 32-179, limits assumed).
T5 construct: Bought soluble antigen of the Carterra assay; also called hNKG2A; not shown: mouse IgG2a Fc tag
Nature of the test: SPR (Carterra), antibody on chip, soluble antigen.

Test [7] has as its target T6, Human PD-L1 with His tag (AcroBiosystems) (human, UniProt Q9NZQ7 19-238).
T6 construct: Bought protein; also called hPD-L1; not shown: His tag
As to the kind of experiment: SPR (Carterra), antibody on chip, soluble antigen.

Test [8] deals with Cyno PD-L1 (cyno, UniProt G7PSE7 19-238). As to the kind of experiment: SPR (Carterra), antibody on chip, soluble antigen.
Test [9] has as its target T3, NKG2A expressed on KHYG-1 cells …. Nature of the test: flow cytometry on KHYG-1 cells expressing endogenous NKG2A. The procedure:
as §3, §4
This is another data set of the same source.

The target of test [10] is T7, cynomolgus NKG2A/CD94 (soluble antigen of the equilibrium assay) (cynomolgus, UniProt Q68VD2 94-233; Q68VD4 32-179, Biotinylated in the Octet assays of Example 2; state in the SPR equilibrium assay not seen.).
T7 construct: also called Cyno NKG2A/CD94; copies: 1 + 1
As to the kind of experiment: SPR equilibrium response, Langmuir isotherm; antibody on chip, soluble antigen. The protocol:
In addition, a method using an equilibrium approach was performed. Kd determinations for cynomolgus NKG2A/CD94 were performed by measuring the signal response at equilibrium. […] The equilibrium response signals and corresponding antigen concentrations were then input into a Langmuir binding isotherm model, and the Kd was determined through nonlinear regression. Averages and standard deviations were calculated from 24 replicate chip locations for each molecule.

Test [11] deals with T3, NKG2A expressed on KHYG-1 cells …. As to the kind of experiment: flow cytometry competition; inhibition of HLA-E tetramer binding to KHYG-1 cells; first of the two EC50 values printed for P12×A2; the patent does not say what tells them apart. The protocol: (§5) 15 μL per well of binder dilution at 2× concentration was plated in a 96-well plate (Costar 3897). 15 μL per well of cell suspension at 5×10⁶ cells per mL was added. Plates were placed at 4° C. for 30 minutes. Following the incubation, 5 μL per well of Fc block (BD Pharmingen Cat #564220) was added at a final concentration of 500 ng per well. Plates were placed at 4° C. for 10 minutes. […] Plates were placed at 4° C. for 1 hour. Following the incubation, 100 μL per well of PBS was added and plate was centrifuged at 400×g for 7 minutes. Supernatant was removed by flicking the plate. Cells were resuspended in 50 μL per well of PBS and analyzed by flow cytometry (Intellicyt).

Test [12] has the same target. Nature of the test: flow cytometry competition; inhibition of HLA-E tetramer binding to KHYG-1 cells; second of the two EC50 values printed for P12×A2; the patent does not say what tells them apart. The procedure: as §5

T6 sequence (Q9NZQ7 19-238 limits assumed): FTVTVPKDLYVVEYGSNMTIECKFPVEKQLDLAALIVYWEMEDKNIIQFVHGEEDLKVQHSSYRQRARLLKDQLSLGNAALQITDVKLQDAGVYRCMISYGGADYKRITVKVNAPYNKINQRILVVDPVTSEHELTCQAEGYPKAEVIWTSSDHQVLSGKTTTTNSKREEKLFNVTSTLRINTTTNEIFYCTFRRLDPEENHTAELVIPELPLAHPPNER
T5 sequence (P26715 94-233 limits assumed, chain 1 of 2): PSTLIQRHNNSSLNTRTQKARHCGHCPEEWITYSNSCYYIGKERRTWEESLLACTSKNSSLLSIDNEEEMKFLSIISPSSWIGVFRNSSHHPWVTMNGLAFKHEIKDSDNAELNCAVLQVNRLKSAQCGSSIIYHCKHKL
T5 sequence (Q13241 32-179 limits assumed, chain 2 of 2): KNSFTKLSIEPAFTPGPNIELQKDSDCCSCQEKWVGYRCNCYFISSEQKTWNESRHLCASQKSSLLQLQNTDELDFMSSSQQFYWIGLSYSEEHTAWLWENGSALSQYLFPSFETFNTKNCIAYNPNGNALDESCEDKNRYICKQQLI
Sequence of Cyno PD-L1 (G7PSE7 entry or part of it limits assumed): as the sequence (Q9NZQ7 19-238 limits assumed) above, with A33T, A34S, S62N, R68Q, Q82R, F173L, T185A, T192I, H215L counted along it
T3 sequence (P26715 whole entry, chain 1 of 2): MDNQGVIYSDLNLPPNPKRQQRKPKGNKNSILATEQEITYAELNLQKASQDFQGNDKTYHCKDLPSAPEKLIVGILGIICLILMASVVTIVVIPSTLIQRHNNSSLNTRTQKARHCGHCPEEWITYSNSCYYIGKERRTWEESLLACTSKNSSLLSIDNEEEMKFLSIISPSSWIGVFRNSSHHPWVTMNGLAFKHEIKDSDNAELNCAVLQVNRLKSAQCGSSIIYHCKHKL
T3 sequence (Q13241 whole entry, chain 2 of 2): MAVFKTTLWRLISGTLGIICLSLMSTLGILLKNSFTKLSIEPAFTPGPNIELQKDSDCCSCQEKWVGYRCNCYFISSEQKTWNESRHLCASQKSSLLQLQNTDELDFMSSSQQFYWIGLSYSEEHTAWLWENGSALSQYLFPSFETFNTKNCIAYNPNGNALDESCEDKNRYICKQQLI
T4 sequence (Q9NZQ7 19-290 limits assumed): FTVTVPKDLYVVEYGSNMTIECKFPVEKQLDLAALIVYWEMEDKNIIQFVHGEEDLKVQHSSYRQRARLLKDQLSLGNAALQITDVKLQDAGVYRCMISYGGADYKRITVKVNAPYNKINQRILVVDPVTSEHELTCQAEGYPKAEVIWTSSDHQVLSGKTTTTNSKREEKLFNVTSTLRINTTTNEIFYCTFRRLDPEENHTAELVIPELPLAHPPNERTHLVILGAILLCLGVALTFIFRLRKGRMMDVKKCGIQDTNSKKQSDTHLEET
T1 sequence (P26717 other isoform, or with tags, fused parts or gaps, chain 1 of 2): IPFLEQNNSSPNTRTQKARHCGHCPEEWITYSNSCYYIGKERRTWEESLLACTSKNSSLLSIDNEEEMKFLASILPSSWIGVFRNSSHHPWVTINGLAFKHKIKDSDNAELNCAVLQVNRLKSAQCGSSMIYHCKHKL
T1 sequence (Q13241 32-179, chain 2 of 2): as the sequence (Q13241 32-179 limits assumed, chain 2 of 2) above
T7 sequence (NKG2A, as listed by the source limits assumed, chain 1 of 2): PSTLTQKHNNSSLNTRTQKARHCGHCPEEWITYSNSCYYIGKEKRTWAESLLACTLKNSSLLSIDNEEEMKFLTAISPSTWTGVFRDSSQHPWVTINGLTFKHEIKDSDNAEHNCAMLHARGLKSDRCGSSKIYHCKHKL
T7 sequence (CD94, as listed by the source limits assumed, chain 2 of 2): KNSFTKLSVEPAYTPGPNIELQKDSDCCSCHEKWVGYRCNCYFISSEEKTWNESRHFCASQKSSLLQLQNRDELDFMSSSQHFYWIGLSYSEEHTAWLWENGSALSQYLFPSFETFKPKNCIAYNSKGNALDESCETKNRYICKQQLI
T2 sequence (Q9MZJ3 other isoform, or with tags, fused parts or gaps, chain 1 of 2): as the sequence (NKG2A, as listed by the source limits assumed, chain 1 of 2) above
T2 sequence (Q9MZK9 32-179, chain 2 of 2): as the sequence (CD94, as listed by the source limits assumed, chain 2 of 2) above

B1: Antibody Clone A11 (antibody, human IgG1, kappa, V domains shown)
VH: EVQLVESGGGLVQPGGSLRLSCAASGFTFSWYYIHWVRQAPGKGLEWVAVIDPISSYTYYADSVKGRFTISADTSKNTAYLQMNSLRAEDTAVYYCARGFDRAMDYWGQGTLVTVSS
VL: DIQMTQSPSSLSASVGDRVTITCRASKSVSSALAWYQQKPGKAPKLLIYVGSSRYSGVPSRFSGSRSGTDFTLTISSLQPEDFATYYCQQYYSSPYTFGQGTKVEIKR
For the molecule B1, the binding result in test [1] and in [2] was “no binding” in each case. In addition, the midpoint of the response in [3], the EC50, lay at 4.35 nM.

B2: P12 × A2 (1 × 1 format) (bispecific antibody)
heavy 1: DIQMTQSPSSLSASVGDRVTITCRASQSVSSAVAWYQQKPGKAPKLLIYSASSLYSGVPSRFSGSRSGTDFTLTISSLQPEDFATYYCQQFMLEPITFGQGTKVEIKGQPREPQVCTLPPSRDELTKNQVSLTCLVRGFYPSDIAVEWESNGQPENNYKTTPPVLDSDGSFFLYSKLTVDKSRWQQGNVFSCSVMHEALHNHYTQKSLSLSPGKDKTHTCPPCPAPEAAGGPSVFLFPPKPKDTLMISRTPEVTCVVVDVSHEDPEVKFNWYVDGVEVHNAKTKPREEQYNSTYRVVSVLTVLHQDWLNGKEYKCKVSNKALKAPIEKTISKAKGQPREPQVYTLPPSREEMTKNQVSLSCAVKGFYPSDIAVEWESNGQPENNYKTTPPVLDSDGSFFLVSKLTVDKSRWQQGNVFSCSVMHEALHNHYTQKSLSLSPGK
light 1: EVQLVESGGGLVQPGGSLRLSCAASGFTFSSYYIHWVRQAPGKGLEWVATINSRGGFTLYADSVKGRFTISADTSKNTAYLQMNSLRAEDTAVYYCARGYTLTPVLDYWGQGTLVTVSSAQPREPQVYTLPPCRDWLTKNQVSLTCLVKGFYPSDIAVEWESNGQPENNYKTTPPVLDSDGSFFLYSKLTVDKSRWQQGNVFSCSVMHEALHNHYTQKSLSLSPGK
heavy 2: not shown
light 2: EVQLVESGGGLVQPGGSLRLSCAASGFTFSSYYIHWVRQAPGKGLEWVASYVPEDGYTDYADSVKGRFTISADTSKNTAYLQMNSLRAEDTAVYYCARSSDFIPWTSSGGMDYWGQGTLVTVSSASTKGPSVFPLAPSSKSTSGGTAALGCLVKDYFPEPVTVSWNSGALTSGVHTFPAVLQSSGLYSLSSVVTVPSSSLGTQTYICNVNHKPSNTKVDKKVEPKSC
notes: One PD-L1 site, one NKG2A site; also called P12×A2, sFc; P12 × A2 sFc
For B2, in test [4], the “IC50 of inhibiting PD-1/PD-L1 interaction in PD-L1+MDA-MB-231 cells (PD-1/PD-L1 Signaling Bioassay, chemiluminescent signal)” value is 0.408 nM. Further, the EC50 (usually the concentration needed to bring the measured effect to its halfway point) in [5] was found to be 55.9 nM; in test [9], 4.66 nM; in test [11] it was 21 nM; in test [12] it was 65.2 nM. Besides, the Kd – broadly, the constant that tells how readily two partners part at equilibrium – worked out at 0.21 nM in [6], 0.13 nM in test [7], 0.1 nM in test [8] and 42 nM in test [10]. In addition, the koff (as a rule, the rate constant with which the complex falls apart) in [6] came to 8e-05 s⁻¹; in test [7], 7e-05 s⁻¹; in [8], 6e-05 s⁻¹. Also, the kon (commonly a measure of how fast the partners come together) in test [6] was 360000 M⁻¹ s⁻¹; in test [7], 530000 M⁻¹ s⁻¹; in test [8], 560000 M⁻¹ s⁻¹.
